To fix the notation:
B1: mRNA-splicing (parent)
chain: AGUUGCUGCUGGGAGCUCCAGCACAGUGAAAUGGACAGAAGGGCAGAGCAA

The data set covers variants of B1. Kind of data set: exon inclusion enrichment index; higher = more inclusion; WT1 exon 5 minigene, HEK293.
As for G2C U3A G5A U7C G8A U10C, the “exon inclusion enrichment index” value amounted to 1.93. As for G5U G8U C9U G42A, the figure is 0.667; as for G5U C6G U7G G8U C9U, 0.0864. As for G5C C6U U7A G8U C9A, the “exon inclusion enrichment index” value was found to be 0.195. For G5A C6G G8U C9A, the “exon inclusion enrichment index” value stood at 0.00122. As for U4C G5C C6G U7G C9A, the figure is 2.21. G5C C6A U7C G8A U10A A37G G38C: the “exon inclusion enrichment index” value came out at 0.228.

For the variant G5A U7C G8A U10C G46C, the “exon inclusion enrichment index” value turned out to be 2.03. To C6A U7C C9A U10C G13U A14U belongs 2.48; to G5A U7C G8A U10C A14U G15A, 0.514; to G5A C6U U7A G8U C9A C19U, 0.00395. In the case of G5A U7C G8A U10C G28U A29U, the “exon inclusion enrichment index” value amounted to 0.443.

G5U G8U C9U G26C U27A: the “exon inclusion enrichment index” value was found to be 0.135. In the case of G5C C6A U7C G8A U10A G41U G42U, the “exon inclusion enrichment index” value came to 0.0854. As for C6A U7C C9A U10C A39C A40G, the figure is 3.55; as for G5C C6A U7C G8A U10A C16U U17A, 0.048; as for G5A C6G U7G C9A A39C A40C, 0.0091.

In the case of G5U G8U C9U C19U A20U, the “exon inclusion enrichment index” value came out at 0.0205. As for G5A C6G U7G C9A A25U G26A, the figure is 0.00161. Regarding C6A U7A C9A U10A C16A U17G, the “exon inclusion enrichment index” value came out at 0.312.

Turning to G5A C6G U7G C9A A30U A31C, the “exon inclusion enrichment index” value is 0.00225. As for G13A A14G, the figure is 0.249. As for G5A C6G U7G C9A U10A G11U, the figure is 0.00545. On to G13U, for which the “exon inclusion enrichment index” value is 0.0154.

Consider G13A, for which the “exon inclusion enrichment index” value is 0.135.

On to G5C C6G U7C U10C U17C C18A, for which the “exon inclusion enrichment index” value came out at 3.59. G5A C6U U7A G8U C9A G26C: the “exon inclusion enrichment index” value is 0.142. On to C6A U7A C9A U10A C18G C19G, for which the “exon inclusion enrichment index” value turned out to be 0.718. To G5C C6A U7C G8A U10A A30C belongs 0.0836; to G5C C6A U7C G8A U10A A30G, 0.0971; to G5A C6G U7G C9A C44G, 0.00206. To C6A U7C C9A U10C A47C belongs 3.27. As for G5A U7C G8A U10C C36A A37U, the figure is 1.07. On to C6A U7C C9A U10C G21U C22G, for which the “exon inclusion enrichment index” value came out at 3.54. With G5C C6G U7C U10C G34A A35G, the “exon inclusion enrichment index” value was determined as 2.26. To G5A U7C G8A U10C A14G G15A belongs 1.8. To C6A U7C C9A U10C A14U G15A belongs 2.06; to C6A U7C C9A U10C A14U G15U, 2.08; to C6A U7A C9A U10A A45G G46C, 1.17. As for G5A C6U U7A G8U C9A C24U A25U, the figure is 0.0538; as for G41A, 0.0829; as for G5A C6U U7A G8U C9A A23U C24A, 0.0228. Consider C36U A37C, for which the “exon inclusion enrichment index” value came out at 0.0746. Consider G5C C6A U7C G8A U10A A40G G41A, for which the “exon inclusion enrichment index” value turned out to be 0.0264. As for G5U G8U C9U A39C A40G, the figure is 0.162; as for G5C C6G U7C U10C G41A G42U, 2.89; as for G5C C6G U7C U10C U27G G28A, 3.58. To G5A U7C G8A U10C G26U U27C belongs 3.63; to G2C G5C C6G U7C U10C, 2.87.

For the variant G5C C6U G8U C9U U10C, the “exon inclusion enrichment index” value is 0.615. To C6A U7A C9A U10A A23U belongs 0.394; to G5C C6U G8C C9U U10C G21A C22G, 1.93. As for C6A U7C C9A U10C G21A C22G, the figure is 3.04.

Consider G5C C6A U7C G8A U10A A25G G26U, for which the “exon inclusion enrichment index” value came out at 0.306. To G5C C6U G8C C9U U10C G15U C16U belongs 1.32.

On to G41A G42U, for which the “exon inclusion enrichment index” value was 0.107. Regarding C6A U7C C9A U10C G28C A29U, the “exon inclusion enrichment index” value was determined as 2.34. To C6A U7A C9A U10A G46C belongs 0.722; to G5U G8U C9U A37C, 0.465. Take U3A G5C C6U G8C C9U U10C: the “exon inclusion enrichment index” value came out at 2.74. As for C6A U7C C9A U10C G46U A47U, the figure is 3.03; as for G5C C6G U7C U10C C16U U17A, 3.78; as for G5A C6G U7G C9A G34U A35G, 0.00131.

On to G5C C6U G8C C9U U10C G26C U27A, for which the “exon inclusion enrichment index” value was 2.14. To G5A U7C G8A U10C U27A G28C belongs 2.42; to C6A U7A C9A U10A A37C G38C, 0.896. For G5C C6G U7C U10C G12U G13U, the “exon inclusion enrichment index” value was 0.206. G8U: the “exon inclusion enrichment index” value stood at 1.2. To U4A G5A belongs 0.00706; to G5C C6A U7C G8A U10A G42U G43A, 0.386; to G5A C6U U7A G8U C9A G41U G42U, 0.0785.

For the variant G5A C6G U7G C9A A23G C24A, the “exon inclusion enrichment index” value worked out at 0.00158.

For the variant C6A U7A C9A U10A C16A, the “exon inclusion enrichment index” value turned out to be 0.669. Take C6A U7A C9A U10A G28U A29C: the “exon inclusion enrichment index” value is 0.539. As to G5C C6A U7C G8A U10A G46U A47U, the “exon inclusion enrichment index” value came to 0.206. Consider G5A C6U U7A G8U C9A G11A G12A, for which the “exon inclusion enrichment index” value was found to be 0.00659. As for G5C C6A U7C G8A U10A G34C A35G, the figure is 0.0658; as for G5A C6G U7G C9A G15C C16U, 0.000839; as for G5A C6U U7A G8U C9A A30C A31U, 0.0899. As for C6A U7A C9A U10A A20U G21C, the figure is 0.712; as for G5U U7G C9U, 0.575; as for C6A U7C C9A U10C G38C A39U, 0.489.

On to G5A U7G U10C, for which the “exon inclusion enrichment index” value is 0.936.

These data come from the RNAGym collection of RNA variant scans (doi:10.1101/gr.219683.116).
